Laboratory results: the nanobody polyreactivity screen of Harvey et al. (2022)

Assay: yeast display, Sf9 membrane polyspecificity reagent, FACS + sequencing; frameworks hold sequencing errors
Procedure, shortened: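 Nanobodies came from a synthetic yeast display library in Saccharomyces cerevisiae BJ5465, induced with galactose for 36–48 hours and stained for 1 hour at 4 °C with 10% biotinylated, detergent-solubilized Sf9 membrane reagent. Cells were enriched on streptavidin microbeads and then FACS-sorted, with low and high (top ~1%) gates set on anti-HA fluorescence for expression and streptavidin fluorescence for reagent binding. Each polyreactivity label reflects the gate a clone came from. Genes were amplified by colony PCR, sequenced by MiSeq 2 × 250 and filtered by CDR length.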

Sequence | polyreactivity (PSR sort gate)
QVQLVESGGGLVQAGGSLRLSCAASGRTFVTNAMGWYRQAPGKERELVAAITQRGGRTYYADSVKGRFTISRDNAKNTVYLQMNSLKPEDTAVYYCAASYYGWSARYDTLGIYEYWGQGTQVTVSS | high polyreactivity
QFQLVESGGGLVQAGGSLRLSCAASGGTFGNNDMGWYRQAPGKERELVAAIRSAGTTYYADSVKGRFTISRDNAKNTVYLQMNSLKPEDTAVYYCNADTTGYWSYGFQYYGEDYWGQGTQVTVSS | low polyreactivity
QVQLVESGGGLVQAGGSLRLSCAASGNIFGVYAMGWYRQAPGKERELVAAIRYSTVSTYYADSVKGRFTISRDKAKNTVYLQMNSLKPQDTAVYNSAAHRYYWSLYGYDYWGHGTQVTVSS | high polyreactivity
QVQLVESGGGLVQAGGSLRLSCAASGRIFRYNAMGWYRQAPGKERELVAAITKGGGSTYYADSVKGRFTISRDNAKNTVYLQMTSLNPEDTGVYYCAARRAVYRGNYWGQGTKVTVSS | high polyreactivity
QVQLVESGGGLVQAGGSLRLSCAASGSTFGANAMGGYRQAPGKERELVATISSGGRTYYADSVKGRFTISRDNAKNTVYLQMNSLKPEDTAVYYCNAGADYTYVYISVYVLYDYWGQGTQVTVSS | low polyreactivity
QVQLVESGGGLVQAGGSLRLSCAASGGTFVYYAMGWYRQAPGKERELVAAISGSGGRTYYADSVKGRFTISRDNAKNTVYLQMNSLKPEDTAVYFCAAVHLNRYWGQGTQVTVSS | high polyreactivity
QVQLVESGGGLVQAGGSLRLSCAASGSTFRPNAMGWYRQAPGKERELVAAISRSGVSTYYADSVKGRFTISRDNAKNTVYLQMNSLKPEDTAVYYCARRYTGRPVLRESWGQGTQVTVSS | low polyreactivity
QVQLVESGGGLVQAGGSLRLSCAASGRIFESYAMGWYRQAPGKERELVAAISSGGGTTYYADSVKGRFTISRDNAKNTVYLQMNSLKPEDTAVYYCAAGPWFYYWGQGTQVTVSS | low polyreactivity
QVQLVESGGGLVQAGGSLRLSCAASGRTFPYYAMGWYRQAPGKERELVAAISSSGGGTYYADSVKGRFTISRDNAKNTVYLQMNSLKPEDTAVYYCNAVSYYQDSFYYWGQGTQVTVSS | high polyreactivity
QVQLVESGGGLVQAGGSLRLSCAASGSIFNSYAMGWYRQAPGKERELVAAIRWSGGRTYYADSVKGRFTISRDNAKNTVYLQMNSLKPEDTAVYYCNVVSPGRVNYWGQGTQVTVSS | high polyreactivity
KVQLVESGGGLVQAGGSLRLSCAASGSTISGYAMGWYRQAPGKERELVAAITIGGGTYYADSVKGRFPISRDNAKNTVYLQMNSLKPEDTGVYYCNAYRRKLWYPTGMYWGQGTQVTVSW | high polyreactivity
QVQLVESGGGLVQAGGSLRLSCAASGSIFNGNAMGWYRQAPGKERELVAAITRRGGRTYYADSVKGRFTISRDNAKNTVYLQMNSLKPDDTAVYYCNAYSKAVQGGYDYWGQGTQVTVSS | high polyreactivity
QVQLVESGRGLVQAGGSLRLSCAASGRTFRWYAMGWYRKAPGKERELVAAISGSGDRTYYADSVKGRFTISRDNAKNTVYLQMYSLKPVDTAVYYCYKAYLLYYTYARGDYWGQGTQVTVSS | high polyreactivity
QVQLVDSGGGLVQAGGSLRLICAASGSTFYHYAMGWYRQAPGKERELVAAISSSGGRTYYADSVKGRFTISRDNAKNTVYLQMNSLKPEDTAVYYCAARAKTSGSIEDYWGQGTQVTVSS | high polyreactivity
QVQLVESGGGLVHAGGSLRLSCAASGFTFYKNAMGWYRQAPGKERELVAAISADGGRTYYADSVKGRFTISRDNAKNTVYLQMNSLKPEDTGVYYCNARARRYTRLRWYAYVSDNDYWGQGTQVTVSS | high polyreactivity
QVQLVDSGGGLVQAGGSLRLSCAASGSIFWIYSMGWYRQAPGKERELVATISRGGSTYADSVKGRFTISRDNAKNTVYLQMNSLKPEDTPVYYCAARAFAGNQQAYYYWGQGTQVTVSS | high polyreactivity
QVQLDESGGGLVQAGGSLRLSCAASGHIFFYYTMGWSRQAPRKEREFVAGITIGGSTNYADSVKGRFTISRDNAKYTVYLQKNSLKPEDTAVYYCNVVTYVYIYSYWEYYYWGQGTQVTVSS | low polyreactivity
QVQLVESGGGLVQAGGSLRLSCAASGSTFVSYAMGWYRQAPGKEREFVAAITWSGGSTYYADSVKGRFTISRDNAKNTVYLQMNSLKPEDTAVYDCAAATYRQQWHYYWGQGTQVTVSS | high polyreactivity
QVQLVESGGVLVQEGGSLRLSCADSGRIFYSNAMGWYRQAPGKERELVAAISYSGGRTYYADSVKGRFTISRDNAKNTVYLQMNSLIPEDTAVYYCAARYAWGYVDPGDYWGQGTQVTVSS | high polyreactivity
QVQLVESGVGLVQAGGSLRLSCAHSGRIFFKNTMGWYRQAPGKERELVAAITSSGSSTYYADSVKGRFTISRDNAMNTVYLQMNSLKPEDTAVYYCNADYGFSFYWYDFWGHGTQVTVSS | low polyreactivity
QVQLVESGGGLVQAGGSLRLSCAASGSTFNRYAMGWYRQAPGKERELVAAISWNGGSTYYADSVKGRFTSSRDNAKNTVYLQMNSLKPEDTAVYYCATLVRKYDGFNYWGQGTQVTVSS | high polyreactivity
